Earlier results on one molecule are cited in article PMC5340040 (BMC Biochemistry, 2017).

In this data set the test system is actin. Particulars: ref [10]. The text has this:
Actin is a negatively charged structural protein and the most abundant protein in the eukaryotic cells. Actin, released from dead cells, is also present in the saliva. Actin has important roles in cytoskeleton formation, cell division, motility, adhesion, signaling and more. Actin exists in either monomer globular (G) or polymer filament (F) form, which are interconvertible into each other.

B1: eEF1A: eukaryotic elongation factor 1 alpha (protein, UniProt P02994 2-458, looked up)
Elongation factor 1-alpha: GKEKSHINVVVIGHVDSGKSTTTGHLIYKCGGIDKRTIEKFEKEAAELGKGSFKYAWVLDKLKAERERGITIDIALWKFETPKYQVTVIDAPGHRDFIKNMITGTSQADCAILIIAGGVGEFEAGISKDGQTREHALLAFTLGVRQLIVAVNKMDSVKWDESRFQEIVKETSNFIKKVGYNPKTVPFVPISGWNGDNMIEATTNAPWYKGWEKETKAGVVKGKTLLEAIDAIEQPSRPTDKPLRLPLQDVYKIGGIGTVPVGRVETGVIKPGMVVTFAPAGVTTEVKSVEMHHEQLEQGVPGDNVGFNVKNVSVKEIRRGNVCGDAKNDPPKGCASFNATVIVLNHPGQISAGYSPVLDCHTAHIACRFDELLEKNDRRSGKKLEDHPKFLKSGDAALVKFVPSKPMCVEAFSEYPPLGRFAVRDMRQTVAVGVIKSVDKTEKAAKVTKAAQKAAKK
With B1, the “polymerization and bundling of actin, eEF1A” value was “polymerize G-actin to F actin and bundle F-actin into actin bundles”.
